Results: the supplement of paper PMC9170038

Tested on: MS2 coat protein
Test: apparent KD of MS2 coat protein; designed switch direction (-1 OFF switch, 1 ON switch): 1; higher = weaker reporter binding
Procedure, shortened: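 The reported apparent KD is a per-design median over clusters, from curve fits of normalised cluster fluorescence. Protein titrations used SNAP-549-labelled MS2 coat protein, doubled from 0.7 or 1.5 nM to 3 µM, in Tris-HCl pH 7.5 buffer with KCl, MgCl2, BSA, DTT, tRNA and Tween-20, with no input, 200 uM small-molecule ligand, or an oligonucleotide input. The RNA switches were transcribed on Illumina chips by stalled E. coli RNA polymerase.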

[1] = input ligand: microRNA oligo, concentration not stated
[2] = Eterna round: R95, input ligand: FMN 200 uM
[3] = Eterna round: R95, input ligand: microRNA oligo, concentration not stated
[4] = Eterna round: R95, input ligand: none

Sequence	apparent KD of MS2 coat protein (input ligand: FMN 200 uM) [nM]	apparent KD of MS2 coat protein [1] [nM]	apparent KD of MS2 coat protein (input ligand: none) [nM]	apparent KD of MS2 coat protein [2] [nM]	apparent KD of MS2 coat protein [3] [nM]	apparent KD of MS2 coat protein [4] [nM]
GGAUGAUGGACAGGAUAUUGAUUGUAAUGGUGUCAAGAAGGGUCUUUGAUUUAAACGACCAGUUACAUGAGGAUCACCCAUGUU [JR_SSNG1_Sub031] (Eterna round: R96, puzzle: Same State NG 1)	133	107	205			
UGGUACAUGGGAGGAUAUGGGCAUGAGACAUGAGGAUCACCCAUGUUAUAAAAGCCGAGAGGCAUCUAGAAGGCCCAUGUACCU [JL SSNG1 3.91] (Eterna round: R96, puzzle: Same State NG 2)	15.2	95.2	139			
UCUUGGUUUUUGCUCGUUUUUUGUGUUGAACAUGAGGAUCACCCAUGUAUUGUACAAUCCAGUUUAAUAAUGGUCCA [Mod of one of JR's submissions 2] (puzzle: Sensor for hsa-mir-208a)				55	51	61.7
ACAUGAGAUCUAGGAUAUAUUGUACCUACAUGUGACAUGAGGAUCACCCAUGUGGUAAGUAUGACAUAGAAGGAGAAGAUAUGU [Equivalance 95 - Jieux - Same State NG 2] (Eterna round: R96, puzzle: Same State NG 2)		53.9				
GAGAGACGAUUAGGAUAUCCGGUGAUAAUGAUAGGAGAAGGAAUUGACAUGAGGAUCACCCAUGUAGGAAUAAUCCAGAGAGAG [Parity 25 - Jieux - Same State NG 1] (Eterna round: R96, puzzle: Same State NG 1)	51.5	28.5	48.8			
GCCAUCGAAUGAGGAUAUGGCACCGUUUCGGUGCCAGAAGGCAUGUCAAUUGACAUGAGGAUCACCCAUGUAUUAUCGAUGGCA [JL Fiskers NG1ss - 33 mod 5] (Eterna round: R96, puzzle: Same State NG 1)	119	712	1640			
GAGUAGUUGAAAGGAUAUGGAUUAUUGUAGGAUCCAGAAGGUUUUAACAUGAGGAUCACCCAUGUAGGACUAUAUAUGUGAAUA [Parity 96 - Jieux - Same State NG 1] (Eterna round: R96, puzzle: Same State NG 1)	15.3	10.2	15.4			
UUAUAACAUGAGGAUCACCCAUGUCAUCUAAGUCGAGGAUAUGGGCAAAUAUAAUAAGAACCAGAAGGCGAAUAUU [Mat - Same State 1 - Mod of UCT - D33] (puzzle: Same State 1)				141	14.2	49.9
UGUAAACAUGAGGAUCACCCAUGUUUUUUCAUGGGAGGAUAUCUGAGUUAAGUAUAUUAAGGAGAAGGCCUAUUGU [× ×•×ª×• ×ž×“×™× ×” × ×—×ª-02] (puzzle: Same State 1)				83.8	78	286
AUAAUAAGGACAGGAUAUGGGAAAGGAAGUGUACUAGAAGGGUCGAGAAGACCAGAACAUGAGGAUCACCCAUGUGAUGGGAAA [PowerStrip SSNG 1.28] (Eterna round: R96, puzzle: Same State NG 1)	21.7	23.3	36.1			
AGUCCAGCCUGAGCUGGACAAAAGCAUGUACAUGAGGAUCACCCAUGUUCAUGUACAAGCUUUUUGCUCGUCUUGCC [salish99_208a_r3_107x] (puzzle: Sensor for hsa-mir-208a)				634	15.9	1130
CGUUGGACAUCCAGCAAGACAUGAGGAUCACCCAUGUAGGCGCAGGAUAUGCGGGUUCGGUGCUCGCAGAAGGGUGAAGAAAAC [Araerar] (Eterna round: R96, puzzle: Same State NG 3)	35.5	21.3	30.4			
GACAAUCUAUCUCAGGAUAUCAUGUCAAAGACAUGAGGAUCACCCAUGUACCAGGAAACUGGUUAUGAGAAGGGAGAUAGAUUGA [Mat - Same State 2 - Mod - D26] (puzzle: Same State 2)				264	142	427
UUGCCGCGGGUAGGAUAUGGUCACACUUCUAAAACAUGAGGAUCACCCAUGUCCGACACAUAAAGCCAGAAGGACCCGCGGCUC [Erisriin] (Eterna round: R96, puzzle: Same State NG 2)	18.2	47.4	77.3			
UGAACCUUCACAGGAUAUCAUGCGAAAAUUGCGUGAGAAGGGUGAAUACGGUGUUCAUAGUUGCACAUGAGGAUCACCCAUGUA [SameState NG1 #54] (Eterna round: R96, puzzle: Same State NG 1)	141	69.2	316			
